Results from article PMC4498904, “Mutagenesis Study Reveals the Rim of Catalytic Entry Site of HDAC4 and -5 as the Major Binding Surface of SMRT Corepressor” (PLoS ONE, 2015).

Assays:
[1] = biological target: HA-HDAC4c, wild type, expressed in HEK293 cells (human, UniProt P56524 650-1055); experiment: cell-based or functional assay
[2] = biological target: T1, KGN-SRD3c (N-terminal portion of Kusabira Green protein fused with SRD3c) (human, UniProt Q9Y618 1281-1504); experiment: split reporter (BiFC, NanoBiT); quantitative BiFC (Kusabira Green, Fluo-Chase kit): KGN-SRD3c and KGC-HDAC coexpressed in HEK293, 48 h; fluorescence of cell lysates by spectrophotometer (ex 494 nm, em 538 nm); settings: partners not purified
T1 construct: human SMRT, SRD3c region, amino acid 1281 to 1504; The methods say that KGN-MC-SRD3c was made in the KGC-MC vector; also called KGN-MC-SRD3c; source: HEK293, transfected, in cells or lysate
T1 sequence (Q9Y618 1281-1504): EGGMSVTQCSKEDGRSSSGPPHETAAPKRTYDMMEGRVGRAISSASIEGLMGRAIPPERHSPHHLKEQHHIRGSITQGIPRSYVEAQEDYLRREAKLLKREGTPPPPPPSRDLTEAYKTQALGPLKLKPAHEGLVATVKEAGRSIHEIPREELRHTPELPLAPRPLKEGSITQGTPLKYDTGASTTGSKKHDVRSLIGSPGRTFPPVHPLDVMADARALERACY

Binder	fold repression of a Gal4-tk-luciferase reporter by Gal4N-fused wild-type HDAC4c (50 and 100 ng plasmid) in HEK293 cells; endogenous SMRT-HDAC3 complex [1]	fold increase of the BiFC fluorescent signal over the KGC empty vector [2]
Human HDAC3 (enzyme, UniProt O15379 1-428, looked up) MAKTVAYFYDPDVGNFHYGAGHPMKPHRLALTHSLVLHYGLYKKMIVFKPYQASQHDMCRFHSEDYIDFLQRVSPTNMQGFTKSLNAFNVGDDCPVFPGLFEFCSRYTGASLQGATQLNNKICDIAINWAGGLHHAKKFEASGFCYVNDIVIGILELLKYHPRVLYIDIDIHHGDGVQEAFYLTDRVMTVSFHKYGNYFFPGTGDMYEVGAESGRYYCLNVPLRDGIDDQSYKHLFQPVINQVVDFYQPTCIVLQCGADSLGCDRLGCFNLSIRGHGECVEYVKSFNIPLLVLGGGGYTVRNVARCWTYETSLLVEEAISEELPYSEYFEYFAPDFTLHPDVSTRIENQNSRQYLDQIRQTIFENLKMLNHAPSVQIHDVPADLLTYDRTDEADAEERGPEENYSRPEAPNEFYDGDHDNDKESDVEI	7 fold	–
KGC-HDAC4c (C-terminal portion of Kusabira Green protein fused with HDAC4c), wild type (domain or fragment, human, UniProt P56524 650-1055, looked up, also called KGC-MC-HDAC4c; source: HEK293, transfected, in cells or lysate) PRFTTGLVYDTLMLKHQCTCGSSSSHPEHAGRIQSIWSRLQETGLRGKCECIRGRKATLEELQTVHSEAHTLLYGTNPLNRQKLDSKKLLGSLASVFVRLPCGGVGVDSDTIWNEVHSAGAARLAVGCVVELVFKVATGELKNGFAVVRPPGHHAEESTPMGFCYFNSVAVAAKLLQQRLSVSKILIVDWDVHHGNGTQQAFYSDPSVLYMSLHRYDDGNFFPGSGAPDEVGTGPGVGFNVNMAFTGGLDPPMGDAEYLAAFRTVVMPIASEFAPDVVLVSSGFDAVEGHPTPLGGYNLSARCFGYLTKQLMGLAGGRIVLALEGGHDLTAICDASEACVSALLGNELDPLPEKVLQQRPNANAVRSMEKVMEIHSKYWRCLQRTTSTAGRSLIEAQTCENEEAET	–	~2 fold
KGC-HDAC5c (C-terminal portion of Kusabira Green protein fused with HDAC5c), wild type (domain or fragment, human, UniProt Q9UQL6 680-1087, looked up, human HDAC5 catalytic domain, amino acids 680 to 1087; also called KGC-MC-HDAC5c; source: HEK293, transfected, in cells or lysate) LFTTGVVYDTFMLKHQCMCGNTHVHPEHAGRIQSIWSRLQETGLLSKCERIRGRKATLDEIQTVHSEYHTLLYGTSPLNRQKLDSKKLLGPISQKMYAVLPCGGIGVDSDTVWNEMHSSSAVRMAVGCLLELAFKVAAGELKNGFAIIRPPGHHAEESTAMGFCFFNSVAITAKLLQQKLNVGKVLIVDWDIHHGNGTQQAFYNDPSVLYISLHRYDNGNFFPGSGAPEEVGGGPGVGYNVNVAWTGGVDPPIGDVEYLTAFRTVVMPIAHEFSPDVVLVSAGFDAVEGHLSPLGGYSVTARCFGHLTRQLMTLAGGRVVLALEGGHDLTAICDASEACVSALLSVELQPLDEAVLQQKPNINAVATLEKVIEIQSKHWSCVQKFAAGLGRSLREAQAGETEEAETVS	–	~2 fold
